Reference: US20230272119A1 (MARENGO THERAPEUTICS, published 2023)

Tests used:
[1] = biological target: T1, α-IL12β heavy-LgBiT (SEQ ID NO: 161); test: NanoBiT, HC-LgBiT:LC-SmBiT:competing LC 1:1:1; competing kappa LC m12 (SEQ ID NO: 103)
T1 construct: VH-CH1-linker-LgBiT; germline VH3-33*01

[2] = biological target: T1, α-IL12β heavy-LgBiT (SEQ ID NO: 161); test: NanoBiT, HC-LgBiT:LC-SmBiT:competing LC 1:1:1; competing kappa LC m18 (SEQ ID NO: 109)
[3] = biological target: T1, α-IL12β heavy-LgBiT (SEQ ID NO: 161); test: NanoBiT, HC-LgBiT:LC-SmBiT:competing LC 1:1:1; competing kappa LC m9 (SEQ ID NO: 100)
[4] = biological target: T1, α-IL12β heavy-LgBiT (SEQ ID NO: 161); test: NanoBiT, HC-LgBiT:LC-SmBiT:competing LC 1:1:1; competing kappa LC m6 (SEQ ID NO: 97)
[5] = biological target: T1, α-IL12β heavy-LgBiT (SEQ ID NO: 161); test: NanoBiT, HC-LgBiT:LC-SmBiT:competing LC 1:1:1; competing kappa LC m15 (SEQ ID NO: 106)
[6] = biological target: T2, α-TNFR10β heavy-hCHIg_Hole_Cys (SEQ ID NO: 177); test: intact MS of papain-cleaved multispecific molecule 4; Fab of this pairing observed (observed mass, Da)
T2 construct: full heavy chain, human Fc hole; Fab analysed after papain cleavage in the MS assay; also called α-TRAILR2 arm first chain; HCP1 of multispecific molecules 4, 6, 12

[7] = biological target: T3, α-CTLA4 heavy-hCHIg_Knob_Cys (SEQ ID NO: 168) (Homo sapiens (Human), UniProt P0DOX5 1-449 = IgG part); test: intact MS of papain-cleaved multispecific molecule 4; mispaired Fab observed (observed mass, Da)
T3 construct: full heavy chain, human Fc knob; Fab analysed after papain cleavage in the MS assay; germline VH3-30*01; also called HCP2 of multispecific molecules 3, 4, 5, 9

[8] = biological target: T4, α-CTLA4 heavy-hCHIg_Knob_Cys-GH_scFv (SEQ ID NO: 169); test: KappaSelect resin analysis of multispecific molecule 12, reduced gel; said to agree with lambda light chain pairing with the kappa heavy chain in molecule 4
T4 construct: full heavy chain, human Fc knob, C-terminal scFv; germline VH3-30*01; also called HCP2 of multispecific molecule 12

[9] = biological target: T5, α-CD221 heavy-hCHIg_Hole_Cys (SEQ ID NO: 180); test: intact MS of papain-cleaved multispecific molecule 5; Fab of this pairing observed (observed mass, Da)
T5 construct: full heavy chain, human Fc hole; Fab analysed after papain cleavage in the MS assay; germline VH1-69*01; also called HCP1 of multispecific molecule 5

[10] = biological target: T6, α-activin receptors heavy-LgBiT (SEQ ID NO: 149); test: NanoBiT, HC-LgBiT:LC-SmBiT:competing LC 1:1:1; competing kappa LC m24 (SEQ ID NO: 115)
T6 construct: VH-CH1-linker-LgBiT; germline VH1-46*01

[11] = biological target: T6, α-activin receptors heavy-LgBiT (SEQ ID …); test: NanoBiT, HC-LgBiT:LC-SmBiT:competing LC 1:1:1; competing kappa LC m12 (SEQ ID NO: 103)
[12] = biological target: T6, α-activin receptors heavy-LgBiT (SEQ ID …); test: NanoBiT, HC-LgBiT:LC-SmBiT:competing LC 1:1:1; competing kappa LC m9 (SEQ ID NO: 100)
[13] = biological target: T6, α-activin receptors heavy-LgBiT (SEQ ID …); test: NanoBiT, HC-LgBiT:LC-SmBiT:competing LC 1:1:1; competing kappa LC m27 (SEQ ID NO: 118)
[14] = biological target: T6, α-activin receptors heavy-LgBiT (SEQ ID …); test: NanoBiT, HC-LgBiT:LC-SmBiT:competing LC 1:1:1; competing kappa LC m6 (SEQ ID NO: 97)
[15] = biological target: T6, α-activin receptors heavy-LgBiT (SEQ ID …); test: NanoBiT, HC-LgBiT:LC-SmBiT:competing LC 1:1:1; competing kappa LC m33 (SEQ ID NO: 124)
[16] = biological target: T6, α-activin receptors heavy-LgBiT (SEQ ID …); test: NanoBiT, HC-LgBiT:LC-SmBiT:competing LC 1:1:1; competing kappa LC m42 (SEQ ID NO: 133)
[17] = biological target: T7, α-TRAILR2 heavy-LgBiT (SEQ ID NO: 146); test: NanoBiT, HC-LgBiT:LC-SmBiT:competing LC 1:1:1; competing kappa LC m24 (SEQ ID NO: 115)
T7 construct: VH-CH1-linker-LgBiT; germline VH3-20*01

[18] = biological target: T7, α-TRAILR2 heavy-LgBiT (SEQ ID NO: 146); test: NanoBiT, HC-LgBiT:LC-SmBiT:competing LC 1:1:1; competing kappa LC m12 (SEQ ID NO: 103)
[19] = biological target: T7, α-TRAILR2 heavy-LgBiT (SEQ ID NO: 146); test: NanoBiT, HC-LgBiT:LC-SmBiT:competing LC 1:1:1; competing kappa LC m18 (SEQ ID NO: 109)
[20] = biological target: T7, α-TRAILR2 heavy-LgBiT (SEQ ID NO: 146); test: NanoBiT, HC-LgBiT:LC-SmBiT:competing LC 1:1:1; competing kappa LC m6 (SEQ ID NO: 97)
[21] = biological target: T7, α-TRAILR2 heavy-LgBiT (SEQ ID NO: 146); test: NanoBiT, HC-LgBiT:LC-SmBiT:competing LC 1:1:1; competing kappa LC m15 (SEQ ID NO: 106)
[22] = biological target: T7, α-TRAILR2 heavy-LgBiT (SEQ ID NO: 146); test: NanoBiT, HC-LgBiT:LC-SmBiT:competing LC 1:1:1; competing kappa LC m42 (SEQ ID NO: 133)
[23] = biological target: T7, α-TRAILR2 heavy-LgBiT (SEQ ID NO: 146); test: NanoBiT, HC-LgBiT:LC-SmBiT:competing LC 1:1:1; competing kappa LC m21 (SEQ ID NO: 112)

B1: α-IL12β light-SmBiT (SEQ ID NO: 162) (other)
light: QSVLTQPPSVSGAPGQRVTISCSGSRSNIGSNTVKWYQQLPGTAPKLLIYYNDQRPSGVPDRFSGSKSGTSASLAITGLQAEDEADYYCQSYDRYTHPALLFGTGTKVTVLGQPKANPTVTLFPPSSEELQANKATLVCLISDFYPGAVTVAWKADGSPVKAGVETTKPSKQSNNKYAASSYLSLTPEQWKSHRSYSCQVTHEGSTVEKTVAPTECSGSSGGGGSGGGGSSGGVTGYRLFEEIL
notes: lambda light chain-linker-SmBiT; germline Vl1-44*01
B1 was tested, and the Percent pairing [1] was 100%, the Percent pairing [2] was 80% and the Percent pairing [3] was 100%. For the same binder, the Percent pairing [4] was 100% and the Percent pairing [5] was 100%.

B2: α-TRAILR2 light (SEQ ID NO: 148) (other)
light: SSELTQDPAVSVALGQTVRITCQGDSLRSYYASWYQQKPGQAPVLVIYGKNNRPSGIPDRFSGSSSGNTASLTITGAQAEDEADYYCNSRDSSGNHVVFGGGTKLTVLGQPKANPTVTLFPPSSEELQANKATLVCLISDFYPGAVTVAWKADGSPVKAGVETTKPSKQSNNKYAASSYLSLTPEQWKSHRSYSCQVTHEGSTVEKTVAPTECS
notes: unmodified lambda light chain; germline Vl3-19*01; also called LLCP of multispecific molecules 4, 6, 12
B2: binds [6]; binds [7]; binds [8].

B3: α-CD221 light (SEQ ID NO: 136) (other)
light: SSELTQDPAVSVALGQTVRITCQGDSLRSYYATWYQQKPGQAPILVIYGENKRPSGIPDRFSGSSSGNTASLTITGAQAEDEADYYCKSRDGSGQHLVFGGGTKLTVLGQPKANPTVTLFPPSSEELQANKATLVCLISDFYPGAVTVAWKADGSPVKAGVETTKPSKQSNNKYAASSYLSLTPEQWKSHRSYSCQVTHEGSTVEKTVAPTECS
notes: unmodified lambda light chain; germline Vl3-19*01; also called LLCP of multispecific molecule 5
B3: binds [9].

B4: α-activin receptors light-SmBiT (SEQ ID NO: 150) (other)
light: QSALTQPASVSGSPGQSITISCTGTSSDVGSYNYVNWYQQHPGKAPKLMIYGVSKRPSGVSNRFSGSKSGNTASLTISGLQAEDEADYYCGTFAGGSYYGVFGGGTKLTVLGQPKANPTVTLFPPSSEELQANKATLVCLISDFYPGAVTVAWKADGSPVKAGVETTKPSKQSNNKYAASSYLSLTPEQWKSHRSYSCQVTHEGSTVEKTVAPTECSGSSGGGGSGGGGSSGGVTGYRLFEEIL
notes: lambda light chain-linker-SmBiT; germline Vl2-14*01
Work on B4 yielded a Percent pairing [10] of 75%, a Percent pairing [11] of 81% and a Percent pairing [12] of 90%. The Percent pairing [13] was 79%, the Percent pairing [14] was 90% and the Percent pairing [15] was 100%. For the same binder, the Percent pairing [16] was 87%.

B5: α-TRAILR2 light-SmBiT (SEQ ID NO: 147) (other)
light: SSELTQDPAVSVALGQTVRITCQGDSLRSYYASWYQQKPGQAPVLVIYGKNNRPSGIPDRFSGSSSGNTASLTITGAQAEDEADYYCNSRDSSGNHVVFGGGTKLTVLGQPKANPTVTLFPPSSEELQANKATLVCLISDFYPGAVTVAWKADGSPVKAGVETTKPSKQSNNKYAASSYLSLTPEQWKSHRSYSCQVTHEGSTVEKTVAPTECSGSSGGGGSGGGGSSGGVTGYRLFEEIL
notes: lambda light chain-linker-SmBiT; germline Vl3-19*01
Binder B5 has a Percent pairing [17] of 81%, a Percent pairing [18] of 84% and a Percent pairing [19] of 100%. The Percent pairing [20] was 100%, the Percent pairing [21] was 77% and the Percent pairing [22] was 100%. The Percent pairing [23] was 100%.
